Laboratory results reported in patent publication US20240067734A1 (Hoffmann-La Roche, published 2024).
Like-named read-outs stand apart in the source and are kept apart here.

How the values were obtained:
[1] = target: T1, human NKG2D expressed on cells (human, UniProt P26718 1-216); test: flow cytometry on NK92 cells, PE anti-human Fc secondary antibody
T1 construct: the cell type is named under assay; also called NKG2D on NK92 cells; HEK293T human NKG2D
T1 chain: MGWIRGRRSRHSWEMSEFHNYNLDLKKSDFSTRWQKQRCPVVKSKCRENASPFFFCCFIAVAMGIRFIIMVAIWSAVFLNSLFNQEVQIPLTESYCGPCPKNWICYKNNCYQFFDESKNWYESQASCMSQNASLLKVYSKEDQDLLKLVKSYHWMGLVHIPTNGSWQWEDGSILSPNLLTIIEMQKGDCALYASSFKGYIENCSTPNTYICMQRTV
Experimental: The anti-NKG2D antibodies P1AE4980, C26 and ADI27743 from Example 21 were tested for binding to NKG2D on NK92 cells.
Viability of NK92 cells was checked and cells were re-suspended and adjusted to a density of 1.5 mio cells/ml. 100 μl of this cell suspension (containing 0.15 mio cells) were seeded into a 96 well round bottom plate. The plate was centrifuged for 4 min at 400×g and the supernatant was removed. Then 40 μl of the diluted antibodies or FACS buffer were added to the cells and incubated for 30 min at 4° C. After the incubation the cells were washed twice with 150 μl FACS buffer per well. […] The cells were incubated for an additional 30 min at 4° C. To remove unbound antibody the cells were washed again twice with 150 μl per well FACS buffer. For the measurement, the cells were re-suspended in 150 μl FACS buffer. The fluorescence was measured using a BD flow cytometer.

di huNKG2D ECD Fc avi = target: T2, di huNKG2D ECD Fc avi (human, biotinylated at the avi-tag); test: SPR ProteOn; antigen on NLC chip, Fab analyte
T2 construct: Dimeric fusion of human NKG2D ECD to the C-terminus of an avi-tagged human IgG1 Fc
Experimental: (§1) This incubation step was repeated once with 25 ml of a 5 mM MgSO₄ solution. The supernatants of both incubation steps were pooled, filtered and loaded on an IMAC column (His[…]™, GE Healthcare). Subsequently, the column was washed with 40 ml washing buffer (500 mM NaCl, 20 mM imidazole, 20 mM NaH2PO₄ pH 7.4). After the elution (500 mM NaCl, 500 mM imidazole, 20 mM NaH₂PO₄ pH 7.4) the eluate was re-buffered using PD10 columns (GE Healthcare).
(§2) Immobilization of recombinant antigens (ligand): Antigens were diluted with PBST (10 mM phosphate, 150 mM sodium chloride pH 7.4, 0.005% TWEEN® (polysorbate) 20) to 10 μg/ml, then injected at 30 μl/minute at varying contact times in vertical orientation for immobilization. […] Buffer (PBST) was injected along the sixth channel to provide an “in-line” blank for referencing. Association rate constants (kₒₙ) and dissociation rate constants (koff) were calculated using a simple one-to-one Langmuir binding model in PROTEON™ Manager v3.1 software by simultaneously fitting the association and dissociation sensorgrams. The equilibrium dissociation constant (KD) was calculated as the ratio koff/kₒₙ. Cross-reactivity of clones 5C5 and 13C6 to cynomolgus NKG2D, i.e. binding to di cyNKG2D ECD Fc avi, was assessed on IgG level (see Example 9).

[2] = target: T3, mono huNKG2D ECD Fc kh avi (human, UniProt P0DOX5 223-449 = IgG part, biotinylated at the avi-tag); test: SPR ProteOn; antigen on NLC chip, Fab analyte
T3 construct: Monovalent human NKG2D ECD fused to the C-terminus of an avi-tagged human IgG1 Fc knob chain, paired with an empty Fc hole chain
Experimental: as §1, §2

[3] = target: T1, human NKG2D expressed on cells; test: flow cytometry on NKG2D-positive NK92 cells, anti-human Fc secondary antibody
[4] = target: T4, CEA expressed on LS180 tumor cells (human, UniProt P06731 35-685); test: flow cytometry on CEA-positive LS180 cells, anti-human Fc secondary antibody
T4 construct: whole, on cells; also called carcinoembryonic antigen; CEACAM5
T4 sequence (looked up): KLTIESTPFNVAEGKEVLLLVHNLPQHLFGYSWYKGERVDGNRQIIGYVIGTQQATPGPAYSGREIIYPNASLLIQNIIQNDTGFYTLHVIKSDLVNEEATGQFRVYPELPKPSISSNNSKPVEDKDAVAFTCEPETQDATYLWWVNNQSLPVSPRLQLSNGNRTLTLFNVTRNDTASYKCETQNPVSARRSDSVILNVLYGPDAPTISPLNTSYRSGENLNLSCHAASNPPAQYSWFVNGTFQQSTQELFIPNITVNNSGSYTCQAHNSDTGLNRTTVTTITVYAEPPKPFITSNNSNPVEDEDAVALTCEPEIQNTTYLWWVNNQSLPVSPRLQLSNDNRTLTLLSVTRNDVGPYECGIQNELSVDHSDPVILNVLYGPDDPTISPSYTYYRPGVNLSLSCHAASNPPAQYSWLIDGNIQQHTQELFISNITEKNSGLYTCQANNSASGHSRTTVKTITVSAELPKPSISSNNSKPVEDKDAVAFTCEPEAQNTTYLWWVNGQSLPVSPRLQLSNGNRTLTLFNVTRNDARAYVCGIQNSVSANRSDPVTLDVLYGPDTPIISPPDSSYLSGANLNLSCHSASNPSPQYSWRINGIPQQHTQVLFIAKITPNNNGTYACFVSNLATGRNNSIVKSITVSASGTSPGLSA
Experimental: (§3) Viability of NK92 cells or tumor cells (MKN-45, LS180) was checked and cells were re-suspended and adjusted to a density of 1 mio cells/ml. 100 μl per well of this cell suspension (containing 0.1 mio cells) were seeded into a 96 well round bottom plate. The plate was centrifuged for 4 min at 400×g and the supernatant was removed. Then 40 μl of the diluted antibodies or FACS buffer were added to the cells and incubated for 30 min at 4° C. After the incubation the cells were washed twice with 150 μl FACS buffer per well. […] The cells were incubated for an additional 30 min at 4° C. To remove unbound antibody, the cells were washed again twice with 150 μl per well FACS buffer. To fix the cells, 100 μl of FACS buffer containing 1% PFA were added to the wells. Before measuring, the cells were re-suspended in 150 μl FACS buffer. The fluorescence was measured using a BD flow cytometer.

[5] = target: T1, human NKG2D expressed on cells; test: flow cytometry on NKG2D-positive NK92 cells, anti-human Fc secondary antibody
Experimental: as §3

B1: anti-NKG2D antibody P1AE4980 (IgG) (antibody, V domains shown)
VH: QEQLVQSGAEVKKPGESLKISCKGSGFDFNTFWMTWVRQMPGKGLEWMGSIHGGSGSRDYSPSFQGQVTISADIDQSTAYLQWSSLKASDTAMYYCARPGYRSWSKTFDLWGQGTTVTVSS
VL: DIQMTQSPSSLSASVGDRVTITCRASQDISGALNWYQQKPGKAPNLLIYAASSLQSGVPSRFSGSGSGTDYTLTISSLQPEDFATYYCQQANSFPLTFGGGTKVEIK
notes: Tested as IgG beside C26 and ADI27743 (human IgG1 PGLALA)
Question: Does B1 bind [1]?
Answer: binds

B2: anti-NKG2D clone 5C5 Fab (Fab, V domains shown)
VH: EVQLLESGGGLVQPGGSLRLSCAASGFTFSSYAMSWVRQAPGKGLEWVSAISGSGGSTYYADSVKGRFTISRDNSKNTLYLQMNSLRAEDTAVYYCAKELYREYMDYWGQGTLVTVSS
VL: SSELTQDPAVSVALGQTVRITCQGDSLRSYYASWYQQKPGQAPVLVIYGKNNRPSGIPDRFSGSSSGNTASLTITGAQAEDEADYYCNSRDSFSIHQNVFGGGTKLTVL
notes: Phage-display Fab purified from E. coli by IMAC (Flag-tagged)
Question: How did the Kd (di huNKG2D ECD Fc avi) turn out when B2 was run?
Answer: 22 nM

Question: What about the koff (di huNKG2D ECD Fc avi) of the same binder?
Answer: 0.0056 s⁻¹

Question: What about the kon (di huNKG2D ECD Fc avi) of the same binder?
Answer: 250000 M⁻¹ s⁻¹

Question: What about the Kd [2] of the same binder?
Answer: 15 nM

Question: What about the koff [2] of the same binder?
Answer: 0.0055 s⁻¹

Question: What about the kon [2] of the same binder?
Answer: 360000 M⁻¹ s⁻¹

B3: anti-NKG2D antibody C26 IgG (PG LALA) (antibody, V domains shown)
VH: QVQLQQWGAGLLKPSETLSLTCAVYGGSFSGYYWSWIRQPPGKGLEWIGEIDHSGSTNYNPSLKSRVTISVDTSKNQFSLKLSSVTAADTAVYYCARARGPWSFDPWGQGTLVTVSS
VL: DIQMTQSPSTLSASVGDRVTITCRASQSISSWLAWYQQKPGKAPKLLIYKASSLESGVPSRFSGSGSGTEFTLTISSLQPDDFATYYCQQYGSFPITFGGGTKVEIKR
notes: Human IgG1 with PGLALA; variable domains from WO 2018/148445
Question: Does B3 bind [1]?
Answer: binds

B4: anti-NKG2D antibody ADI27743 IgG (PG LALA) (antibody, V domains shown)
VH: QVQLQQWGAGLLKPSETLSLTCAVYGGSFSGYYWSWIRQPPGKGLEWIGEIDHSGSTNYNPSLKSRVTISVDTSKNQFSLKLSSVTAADTAVYYCARARGPWSFDPWGQGTLVTVSS
VL: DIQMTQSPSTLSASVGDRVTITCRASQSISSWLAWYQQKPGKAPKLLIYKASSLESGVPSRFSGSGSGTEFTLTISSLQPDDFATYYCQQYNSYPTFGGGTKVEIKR
notes: as for B3
Question: Does B4 bind [1]?
Answer: binds

B5: anti-NKG2D clone 13C6 Fab (Fab, V domains shown)
VH: EVQLVQSGAEVKKPGESLKISCKGSGYSFTSYWIGWVRQMPGKGLEWMGIIYPGDSDTRYSPSFQGQVTISADKSISTAYLQWSSLKASDTAMYYCARLYPVGVYFDYWGQGTLVTVSS
VL: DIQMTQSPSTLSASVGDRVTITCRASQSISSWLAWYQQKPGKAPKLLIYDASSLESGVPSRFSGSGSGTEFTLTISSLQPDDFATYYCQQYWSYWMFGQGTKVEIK
notes: as for B2
Question: B5 was tested. Which Kd (di huNKG2D ECD Fc avi) did it give?
Answer: 74 nM

Question: And the koff (di huNKG2D ECD Fc avi)?
Answer: 0.0007 s⁻¹

Question: What about the kon (di huNKG2D ECD Fc avi) of the same binder?
Answer: 9500 M⁻¹ s⁻¹

Question: What about the Kd [2] of the same binder?
Answer: 79 nM

Question: And the koff [2]?
Answer: 0.00096 s⁻¹

Question: And the kon [2]?
Answer: 12000 M⁻¹ s⁻¹

B6: NKG2D×CEA bispecific antibody, anti-NKG2D 320 / anti-CEA B9, J format (bispecific antibody, V domains shown)
VH 1: EVQLLESGGGLVQPGGSLRLSCATSGFTFSDYAMSWVRQAPGKGLEWVSYNSFSVGSTDYADSVKGRFTISRDNSKNTLYLQMNSLRAEDTAVYYCSKHSGNYYTGPFHYWGQGTLVTVSS
VL 1: DIQLTQSPSFLSASVGDRVTITCRASQGISSYLAWYQQKPGKAPKLLIYAASSLESGVPSRFSGSGSGTDFTLTISSLQPEDFATYYCQQSYSTPITFGQGTRLEIK
VH 2: VQLVESGGGLVQPGRSLRLSCAASGFTVSSYWMHWVRQAPGKGLEWVGFIRNKANGGTTEYAASVKGRFTISRDDSKNTLYLQMNSLRAEDTAVYYCARDRGLRFYFDYWGQGTTVTVSS
VL 2: QAVLTQPASLSASPGASASLTCTLRRGINVGAYSIYWYQQKPGSPPQYLLRYKSDSDKQQGSGVSSRFSASKDASANAGILLISGLQSEDEADYYCMIWHSGASAVFGGGTKLTVL
notes: also called format J (320); tetravalent construct J
Question: Which “EC50 (read off the curve)” value [3] does the source give for B6 here?
Answer: ~6 nM

B7: NKG2D×CEA bispecific antibody, anti-NKG2D 320 / anti-CEA B9, L format (bispecific antibody, V domains shown)
VH 1: EVQLLESGGGLVQPGGSLRLSCATSGFTFSDYAMSWVRQAPGKGLEWVSYNSFSVGSTDYADSVKGRFTISRDNSKNTLYLQMNSLRAEDTAVYYCSKHSGNYYTGPFHYWGQGTLVTVSS
VL 1: DIQLTQSPSFLSASVGDRVTITCRASQGISSYLAWYQQKPGKAPKLLIYAASSLESGVPSRFSGSGSGTDFTLTISSLQPEDFATYYCQQSYSTPITFGQGTRLEIK
VH 2: VQLVESGGGLVQPGRSLRLSCAASGFTVSSYWMHWVRQAPGKGLEWVGFIRNKANGGTTEYAASVKGRFTISRDDSKNTLYLQMNSLRAEDTAVYYCARDRGLRFYFDYWGQGTTVTVSS
VL 2: QAVLTQPASLSASPGASASLTCTLRRGINVGAYSIYWYQQKPGSPPQYLLRYKSDSDKQQGSGVSSRFSASKDASANAGILLISGLQSEDEADYYCMIWHSGASAVFGGGTKLTVL
notes: also called format L (320)
Question: B7 was tested. Which “EC50 (read off the curve)” value [4] did it give?
Answer: ~10 nM

B8: NKG2D×CEA bispecific antibody, anti-NKG2D 395 (C50S) / anti-CEA B9, I format (bispecific antibody, V domains shown)
VH 1: QEQLEQSGGGLVTPGGSLKLCCTASGFDFNTFWMTWVRQAPGKGLEWIGSIHGGSGSRDYASWVNGRFTLSRDIDQSTACLQVNSLTAADTAMYYCARPGYRSWSKTFDLWGQGTMVTVSS
VL 1: DIQMTQSPSSLSASVGDRVTITCRASQDISGALNWYQQKPGKAPNLLIYAASSLQSGVPSRFSGSGSGTDYTLTISSLQPEDFATYYCQQANSFPLTFGGGTKVEIK
VH 2: VQLVESGGGLVQPGRSLRLSCAASGFTVSSYWMHWVRQAPGKGLEWVGFIRNKANGGTTEYAASVKGRFTISRDDSKNTLYLQMNSLRAEDTAVYYCARDRGLRFYFDYWGQGTTVTVSS
VL 2: QAVLTQPASLSASPGASASLTCTLRRGINVGAYSIYWYQQKPGSPPQYLLRYKSDSDKQQGSGVSSRFSASKDASANAGILLISGLQSEDEADYYCMIWHSGASAVFGGGTKLTVL
notes: also called bivalent I format
Question: B8 was tested. Which “EC50 (read off the curve)” value [5] did it give?
Answer: ~2 nM

B9: NKG2D×CEA bispecific antibody, anti-NKG2D 320 / anti-CEA B9, I format (bispecific antibody, V domains shown)
VH 1: EVQLLESGGGLVQPGGSLRLSCATSGFTFSDYAMSWVRQAPGKGLEWVSYNSFSVGSTDYADSVKGRFTISRDNSKNTLYLQMNSLRAEDTAVYYCSKHSGNYYTGPFHYWGQGTLVTVSS
VL 1: DIQLTQSPSFLSASVGDRVTITCRASQGISSYLAWYQQKPGKAPKLLIYAASSLESGVPSRFSGSGSGTDFTLTISSLQPEDFATYYCQQSYSTPITFGQGTRLEIK
VH 2: VQLVESGGGLVQPGRSLRLSCAASGFTVSSYWMHWVRQAPGKGLEWVGFIRNKANGGTTEYAASVKGRFTISRDDSKNTLYLQMNSLRAEDTAVYYCARDRGLRFYFDYWGQGTTVTVSS
VL 2: QAVLTQPASLSASPGASASLTCTLRRGINVGAYSIYWYQQKPGSPPQYLLRYKSDSDKQQGSGVSSRFSASKDASANAGILLISGLQSEDEADYYCMIWHSGASAVFGGGTKLTVL
notes: also called format I (320); I format with antibody 320
Question: How did the “EC50 (read off the curve)” value [3] turn out when B9 was run?
Answer: ~10 nM
